Tests used:
[1] = molecular target: T1, F3 (peptide-Fc fusion derived from the extracellular domain of human CD38) (human, UniProt P0DOX5 223-449 = IgG part); assay: SPR, antibody immobilized on the chip, peptide-Fc fusion injected (1000 nM per paragraph 238)
T1 construct: As F1; by count CD38 residues 69-81; also called F3 construct

[2] = molecular target: T2, F12 (peptide-Fc fusion derived from the extracellular domain of human CD38) (human, UniProt P0DOX5 223-449 = IgG part); assay: SPR, human 767 antibody immobilized on the chip, peptide-Fc fusion injected
T2 construct: As F1; by count CD38 residues 186-198

[3] = molecular target: T3, F15 (peptide-Fc fusion derived from the extracellular domain of human CD38) (human, UniProt P0DOX5 223-449 = IgG part); assay: as above
T3 construct: As F1; by count CD38 residues 225-237

[4] = molecular target: T4, F1 (peptide-Fc fusion derived from the extracellular domain of human CD38) (human, UniProt P0DOX5 223-449 = IgG part); assay: as above
T4 construct: 13-residue peptide fused to human IgG1 Fc (CH2-CH3) with an Ala-Ser linker; by count CD38 residues 43-55

[5] = molecular target: T5, F13 (peptide-Fc fusion derived from the extracellular domain of human CD38) (human, UniProt P0DOX5 223-449 = IgG part); assay: as above
T5 construct: As F1; by count CD38 residues 199-211

[6] = molecular target: T6, F17 (peptide-Fc fusion derived from the extracellular domain of human CD38) (human, UniProt P0DOX5 223-449 = IgG part); assay: as above
T6 construct: As F1; by count CD38 residues 251-263

[7] = molecular target: T7, F20 (peptide-Fc fusion derived from the extracellular domain of human CD38) (human, UniProt P0DOX5 223-449 = IgG part); assay: as above
T7 construct: Final peptide of 11 amino acids, else as F1; by count CD38 residues 290-300

[8] = molecular target: T8, F2 (peptide-Fc fusion derived from the extracellular domain of human CD38) (human, UniProt P0DOX5 223-449 = IgG part); assay: as above
T8 construct: As F1; by count CD38 residues 56-68

[9] = molecular target: T9, soluble extracellular region of human CD38 fused to a 6-His-tag (human, UniProt P28907 43-300); assay: SPR, equilibrium response, antibody captured on protein G
T9 construct: Expressed with the murine VJ2C leader; also called human CD38 protein; human CD38 antigen

[10] = molecular target: T10, soluble extracellular region of cynomolgus monkey CD38 antigen fused to a 6-His-tag (cynomolgus monkey, UniProt Q5VAN0 45-301); assay: SPR
T10 construct: also called cynomolgus CD38

[11] = molecular target: T11, F10 (peptide-Fc fusion derived from the extracellular domain of human CD38) (human, UniProt P0DOX5 223-449 = IgG part); assay: SPR, antibody immobilized, peptide-Fc fusion injected
T11 construct: As F1; by count CD38 residues 160-172

[12] = molecular target: T12, F19 (peptide-Fc fusion derived from the extracellular domain of human CD38) (human, UniProt P0DOX5 223-449 = IgG part); assay: as above
T12 construct: As F1; by count CD38 residues 277-289

[13] = molecular target: T13, F4 (peptide-Fc fusion derived from the extracellular domain of human CD38) (human, UniProt P0DOX5 223-449 = IgG part); assay: as above
T13 construct: As F1; by count CD38 residues 82-94

[14] = molecular target: T14, F6 (peptide-Fc fusion derived from the extracellular domain of human CD38) (human, UniProt P0DOX5 195-449 = IgG part); assay: as above
T14 construct: As F1; by count CD38 residues 108-120 (holds M110)

[15] = molecular target: T15, F18 (peptide-Fc fusion derived from the extracellular domain of human CD38) (human, UniProt P0DOX5 223-449 = IgG part); assay: as above
T15 construct: As F1; by count CD38 residues 264-276

[16] = molecular target: T16, F8 (peptide-Fc fusion derived from the extracellular domain of human CD38) (human, UniProt P0DOX5 223-449 = IgG part); assay: as above
T16 construct: As F1; by count CD38 residues 134-146

[17] = molecular target: T17, F16 (peptide-Fc fusion derived from the extracellular domain of human CD38) (human, UniProt P0DOX5 223-449 = IgG part); assay: as above
T17 construct: As F1; by count CD38 residues 238-250

[18] = molecular target: T18, F11 (peptide-Fc fusion derived from the extracellular domain of human CD38) (human, UniProt P0DOX5 223-449 = IgG part); assay: as above
T18 construct: As F1; by count CD38 residues 173-185

[19] = molecular target: T19, F7 (peptide-Fc fusion derived from the extracellular domain of human CD38) (human, UniProt P0DOX5 223-449 = IgG part); assay: as above
T19 construct: As F1; by count CD38 residues 121-133

[20] = molecular target: T20, F9 (peptide-Fc fusion derived from the extracellular domain of human CD38) (human, UniProt P0DOX5 223-449 = IgG part); assay: as above
T20 construct: As F1; by count CD38 residues 147-159

[21] = molecular target: T21, F14 (peptide-Fc fusion derived from the extracellular domain of human CD38) (human, UniProt P0DOX5 223-449 = IgG part); assay: as above
T21 construct: As F1; by count CD38 residues 212-224

[22] = molecular target: T22, F5 (peptide-Fc fusion derived from the extracellular domain of human CD38) (human, UniProt P0DOX5 223-449 = IgG part); assay: as above
T22 construct: As F1; by count CD38 residues 95-107

B1: human 767 antibody (antibody, human IgG1, kappa, V domains shown)
VH: QVQLVESGGGLVQPGGSLRLSCAASGFTFSSYWMSWVRQAPGKGLEWVANIKQDGSEKYYVDSVKGRFTISRDNAKNSLYLQMNSLRAEDTAVYYCAREGRTGYFDYWGQGTLVTVSS
VL: QSVLTQPPSASGTPGQRVTISCSGSTSNIGTNYVYWYQQLPGTAPKLLIYRNDQRPSGVPDRFSGSKSGTSASLAISGLRSEDEADYYCAAWDDSRSGVYAFGTGTKVTVLR
notes: Human IgG1
[1]
  binding result: binds
[2]
  binding result: no binding
[3]
  binding result: no binding
[4]
  binding result: no binding
[5]
  binding result: no binding
[6]
  binding result: no binding
[7]
  binding result: no binding
[8]
  binding result: no binding
[9]
  Kd: ~300 nM
[10]
  Kd: ~1200 nM
[11]
  binding result: no binding (tested: 1000 nM)
[12]
  binding result: no binding (tested: 1000 nM)
[13]
  binding result: no binding (tested: 1000 nM)
[14]
  binding result: no binding (tested: 1000 nM)
[15]
  binding result: no binding (tested: 1000 nM)
[16]
  binding result: no binding (tested: 1000 nM)
[17]
  binding result: no binding (tested: 1000 nM)
[18]
  binding result: no binding (tested: 1000 nM)
[19]
  binding result: no binding (tested: 1000 nM)
[20]
  binding result: no binding (tested: 1000 nM)
[21]
  binding result: no binding (tested: 1000 nM)
[22]
  binding result: no binding (tested: 1000 nM)

Source: patent publication US20190135918A1 (ICHNOS SCIENCES, published 2019)
